# Reference: patent publication US20150307627A1 (BAC IP B V, published 2015)
# B1: IgG-Fc-01 (VHH)
# VHH: QVQLQESGGGLVQPGGSLRLSCAASGGTSIRIGSINALAWYRQALGNQRELVAAVTEGGSTNYADFVKGRFTISRDNAQNMMYLQMNSLKPEDTAVYYCNADKVLYSRGGYYSVANDLWGQGTQVTVSS
# notes: also called IgG-Fc-1
# B2: IgG-Fc-16 (VHH)
# VHH: QVQLQESGGGLVQAGGSLRLSCAASGRAVGNYIIGWFRQAPGKEREFVATTTRDGGSTFYADSVKGRFTISRDNAKNTVNLQMNSLEPEDTAVYYCAAKSWSVPLRPTSADFDSWGQGTQVTVSS
# notes: also called VHH fragment IgG-Fc-16
# B3: IgG-Fc-10 (VHH)
# VHH: QVQLQESGGGLVQAGDSLRISCRASGLTVNDLYMGWFRQAPGKEREFVGRVTPGDNTDYTYYVDSVKGRFTISRDSAKNTVYLQMNSLKLEDTAVYLCAGRRFGSSEWDYWGQGTQVTVSS
# Assays:
# [1] = molecular target: T1, Human IgG; experiment: SPR, VHH immobilised, 1:1 Langmuir fit
# T1 construct: also called HuIgG; human IgG-Fc domains
# Protocol: (§1) Binding affinity constants of anti IgG-Fc VHH fragments were determined using surface plasmon resonance analysis (SPR) on a BiaCore 3000. For this purpose, purified VHH fragments were immobilised onto the surface of a CM5 sensor chip and subsequently incubated with different concentrations of purified IgG antibodies in HBS-EP buffer. Binding was allowed for 3 minutes at 30 μl/min followed by a dissociation step of 15 minutes at 30 μl/min Binding curves were fitted according to a 1:1 Langmuir binding model using Biacore software.
# [2] = molecular target: T2, HuIgG1 (human, UniProt P01857-1 1-330 = IgG part); experiment: SPR, VHH immobilised, 1:1 Langmuir fit
# T2 construct: Purified human IgG of subclass 1; also called Human-IgG1
# T2 sequence (P01857 other isoform, or with tags, fused parts or gaps): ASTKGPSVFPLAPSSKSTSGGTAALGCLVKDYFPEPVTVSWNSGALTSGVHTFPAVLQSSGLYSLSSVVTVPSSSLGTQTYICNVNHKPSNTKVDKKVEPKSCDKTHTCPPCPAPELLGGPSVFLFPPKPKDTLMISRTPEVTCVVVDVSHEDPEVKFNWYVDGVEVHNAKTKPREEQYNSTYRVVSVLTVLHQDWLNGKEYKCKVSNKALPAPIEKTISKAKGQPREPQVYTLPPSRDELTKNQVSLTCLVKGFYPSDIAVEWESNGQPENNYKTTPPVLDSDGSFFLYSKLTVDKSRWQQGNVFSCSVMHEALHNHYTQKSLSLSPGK
# Protocol: as §1
# [3] = molecular target: T3, HuIgG2 (human, UniProt P01859-1 1-326 = IgG part); experiment: SPR, VHH immobilised, 1:1 Langmuir fit
# T3 construct: Purified human IgG of subclass 2; also called Human-IgG2
# T3 sequence (P01859 other isoform, or with tags, fused parts or gaps): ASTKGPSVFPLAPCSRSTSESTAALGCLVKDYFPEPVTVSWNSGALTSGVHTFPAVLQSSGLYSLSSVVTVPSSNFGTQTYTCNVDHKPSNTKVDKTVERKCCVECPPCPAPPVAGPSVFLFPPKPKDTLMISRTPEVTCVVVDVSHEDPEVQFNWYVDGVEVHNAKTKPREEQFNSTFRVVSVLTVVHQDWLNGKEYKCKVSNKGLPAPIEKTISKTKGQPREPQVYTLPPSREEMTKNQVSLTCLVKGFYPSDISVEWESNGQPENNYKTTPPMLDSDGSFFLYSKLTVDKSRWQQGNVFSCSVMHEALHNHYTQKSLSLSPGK
# Protocol: as §1
# [4] = molecular target: T4, HuIgG3 (human, UniProt P01860-1 1-377); experiment: SPR, VHH immobilised, 1:1 Langmuir fit
# T4 construct: Purified human IgG of subclass 3; also called Human-IgG3
# T4 sequence (P01860 other isoform, or with tags, fused parts or gaps): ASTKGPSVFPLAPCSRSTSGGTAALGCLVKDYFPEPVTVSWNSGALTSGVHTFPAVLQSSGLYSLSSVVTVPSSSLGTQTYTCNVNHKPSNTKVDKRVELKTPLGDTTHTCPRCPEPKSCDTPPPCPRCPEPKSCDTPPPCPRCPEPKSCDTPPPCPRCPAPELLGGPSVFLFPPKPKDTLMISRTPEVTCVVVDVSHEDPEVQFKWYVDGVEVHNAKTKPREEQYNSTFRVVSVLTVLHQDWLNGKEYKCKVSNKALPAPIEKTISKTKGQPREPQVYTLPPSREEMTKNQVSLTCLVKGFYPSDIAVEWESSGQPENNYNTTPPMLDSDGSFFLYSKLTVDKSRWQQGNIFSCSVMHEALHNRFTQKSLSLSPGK
# Protocol: as §1
# [5] = molecular target: T5, HuIgG4 (human, UniProt P01861-1 1-327 = IgG part); experiment: SPR, VHH immobilised, 1:1 Langmuir fit
# T5 construct: Purified human IgG of subclass 4; also called Human-IgG4
# T5 sequence (P01861 other isoform, or with tags, fused parts or gaps): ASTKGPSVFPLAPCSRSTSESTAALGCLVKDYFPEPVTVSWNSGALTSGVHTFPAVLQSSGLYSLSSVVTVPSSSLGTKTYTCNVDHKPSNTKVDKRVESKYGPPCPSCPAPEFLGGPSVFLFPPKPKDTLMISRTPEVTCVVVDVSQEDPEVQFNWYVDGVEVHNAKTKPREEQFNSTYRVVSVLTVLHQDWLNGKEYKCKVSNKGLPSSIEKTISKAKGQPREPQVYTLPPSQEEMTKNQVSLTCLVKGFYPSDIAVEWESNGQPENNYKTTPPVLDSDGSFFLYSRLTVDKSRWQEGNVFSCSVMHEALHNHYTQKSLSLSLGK
# Protocol: as §1
# [6] = molecular target: T1, Human IgG; experiment: affinity chromatography, VHH on NHS-Sepharose, 150 cm/h
# Protocol: The dynamic binding capacity (DBC) of the IgG-Fc domain binding VHH fragments immobilized onto NHS sepharose was tested. 10 ml of 1.0 mg/ml human IgG in PBS pH 7.4 was loaded on a 400 μl column with a linear flow of 150 cm/h. After the washing with 10 column volumes PBS pH 7.4, the column was eluted with 0.1 M glycine buffer pH 3.0. Based on integration of the OD280 signal of the flow through and elution peak, the dynamic binding capacity of the column was calculated (Table 11).
# [7] = molecular target: T1, Human IgG; experiment: SPR, VHH immobilised, IgG 50 µg/ml
# Protocol: (§2) Broad binding reactivity of VHH fragment IgG-Fc-16 was determined using surface plasmon resonance analysis (SPR) on a BiaCore 3000. For this purpose, purified VHH fragment IgG-Fc-16 was immobilised onto the surface of a CM5 sensor chip and subsequently incubated with purified IgG antibodies (50 μg/ml) from different species in HBS-EP buffer. Binding was allowed for 1 minute at 5 μl/min followed by a dissociation step of 2.5 minutes at 5 μl/min. Binding signals (Resonance Units) were compared to background signals measured with HBS-EP buffer only. For comparison, the relative reactivity of Protein A and G towards different IgG species is also given.
# [8] = molecular target: Human IgG, Fc fragment; experiment: SPR, VHH immobilised, IgG 50 µg/ml
# Protocol: as §2
# [9] = molecular target: Human IgG, Fab fragment; experiment: SPR, VHH immobilised, IgG 50 µg/ml
# Protocol: as §2
# [10] = molecular target: T2, HuIgG1; experiment: SPR, VHH immobilised, IgG 50 µg/ml
# Protocol: as §2
# [11] = molecular target: T3, HuIgG2; experiment: SPR, VHH immobilised, IgG 50 µg/ml
# Protocol: as §2
# [12] = molecular target: T4, HuIgG3; experiment: SPR, VHH immobilised, IgG 50 µg/ml
# Protocol: as §2
# [13] = molecular target: T5, HuIgG4; experiment: SPR, VHH immobilised, IgG 50 µg/ml
# Protocol: as §2
# [14] = molecular target: T6, Rat IgG; experiment: SPR, VHH immobilised, IgG 50 µg/ml
# T6 construct: also called IgG-Fc from rat
# Protocol: as §2
# [15] = molecular target: Rat IgG1a; experiment: SPR, VHH immobilised, IgG 50 µg/ml
# Protocol: as §2
# [16] = molecular target: Rat IgG2a (rat, UniProt P20760 1-322); experiment: SPR, VHH immobilised, IgG 50 µg/ml
# Rat IgG2a, sequence (P20760 whole entry): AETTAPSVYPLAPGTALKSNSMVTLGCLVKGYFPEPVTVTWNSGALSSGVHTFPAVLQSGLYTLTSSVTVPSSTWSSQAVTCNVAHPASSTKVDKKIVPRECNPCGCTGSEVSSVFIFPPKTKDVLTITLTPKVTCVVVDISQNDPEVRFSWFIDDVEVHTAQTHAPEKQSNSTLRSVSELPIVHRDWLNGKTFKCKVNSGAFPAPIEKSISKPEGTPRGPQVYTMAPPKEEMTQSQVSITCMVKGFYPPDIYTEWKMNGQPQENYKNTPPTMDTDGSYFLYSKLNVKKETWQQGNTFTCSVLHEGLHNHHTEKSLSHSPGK
# Protocol: as §2
# [17] = molecular target: Rat IgG2b (rat, UniProt P20761 1-333); experiment: SPR, VHH immobilised, IgG 50 µg/ml
# Rat IgG2b, sequence (P20761 whole entry): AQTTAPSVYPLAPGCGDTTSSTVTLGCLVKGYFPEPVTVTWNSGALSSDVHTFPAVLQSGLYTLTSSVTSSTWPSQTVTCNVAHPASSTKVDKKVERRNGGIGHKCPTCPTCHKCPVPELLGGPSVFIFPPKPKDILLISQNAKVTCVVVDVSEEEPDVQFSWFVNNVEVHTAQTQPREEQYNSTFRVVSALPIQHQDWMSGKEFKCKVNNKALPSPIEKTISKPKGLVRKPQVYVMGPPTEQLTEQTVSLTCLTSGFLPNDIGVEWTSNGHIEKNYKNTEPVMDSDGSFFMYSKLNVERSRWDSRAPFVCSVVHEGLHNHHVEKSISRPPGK
# Protocol: as §2
# [18] = molecular target: Rat IgG2c (rat, UniProt P20762 1-329); experiment: SPR, VHH immobilised, IgG 50 µg/ml
# Rat IgG2c, sequence (P20762 whole entry): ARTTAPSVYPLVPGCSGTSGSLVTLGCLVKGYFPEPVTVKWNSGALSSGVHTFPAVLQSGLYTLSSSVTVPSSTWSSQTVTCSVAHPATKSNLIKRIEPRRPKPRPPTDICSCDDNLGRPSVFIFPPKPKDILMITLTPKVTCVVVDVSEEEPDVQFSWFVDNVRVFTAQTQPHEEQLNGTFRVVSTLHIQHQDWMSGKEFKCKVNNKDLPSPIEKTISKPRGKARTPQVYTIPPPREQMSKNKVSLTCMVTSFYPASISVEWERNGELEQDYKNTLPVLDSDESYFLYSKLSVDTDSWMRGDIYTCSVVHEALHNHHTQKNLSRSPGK
# Protocol: as §2
# [19] = molecular target: Rabbit IgG; experiment: SPR, VHH immobilised, IgG 50 µg/ml
# Protocol: as §2
# [20] = molecular target: T7, Sheep IgG; experiment: SPR, VHH immobilised, IgG 50 µg/ml
# T7 construct: also called IgG-Fc from sheep
# Protocol: as §2
# [21] = molecular target: T8, Bovine IgG; experiment: SPR, VHH immobilised, IgG 50 µg/ml
# T8 construct: also called IgG-Fc from bovine
# Protocol: as §2
# [22] = molecular target: Bovine IgG, Fc fragment; experiment: SPR, VHH immobilised, IgG 50 µg/ml
# Protocol: as §2
# [23] = molecular target: Bovine IgG, Fab fragment; experiment: SPR, VHH immobilised, IgG 50 µg/ml
# Protocol: as §2
# [24] = molecular target: T9, Mouse IgG; experiment: SPR, VHH immobilised, IgG 50 µg/ml
# T9 construct: also called IgG-Fc from mouse
# Protocol: as §2
# [25] = molecular target: Mouse IgG 1 (mouse, UniProt P01868 1-324 = IgG part); experiment: SPR, VHH immobilised, IgG 50 µg/ml
# Protocol: as §2
# [26] = molecular target: Mouse IgG2a (mouse, UniProt P01863 1-330 = IgG part); experiment: SPR, VHH immobilised, IgG 50 µg/ml
# Mouse IgG2a, sequence (P01863 whole entry): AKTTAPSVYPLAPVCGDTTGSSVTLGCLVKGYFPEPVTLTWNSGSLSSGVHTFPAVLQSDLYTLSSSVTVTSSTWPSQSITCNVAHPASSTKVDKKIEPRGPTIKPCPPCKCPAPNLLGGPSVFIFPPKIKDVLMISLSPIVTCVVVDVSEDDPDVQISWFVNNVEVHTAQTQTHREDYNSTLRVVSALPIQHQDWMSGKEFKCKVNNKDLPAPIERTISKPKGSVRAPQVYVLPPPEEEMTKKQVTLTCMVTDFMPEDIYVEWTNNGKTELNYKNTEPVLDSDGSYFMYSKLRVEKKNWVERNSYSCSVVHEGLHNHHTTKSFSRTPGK
# Protocol: as §2
# [27] = molecular target: T10, Dog IgG; experiment: SPR, VHH immobilised, IgG 50 µg/ml
# T10 construct: also called IgG-Fc from dog
# Protocol: as §2
# [28] = molecular target: T11, Goat IgG; experiment: SPR, VHH immobilised, IgG 50 µg/ml
# T11 construct: also called IgG-Fc from goat
# Protocol: as §2
# [29] = molecular target: T12, Syrian Hamster IgG; experiment: SPR, VHH immobilised, IgG 50 µg/ml
# T12 construct: also called IgG-Fc from syrian hamster
# Protocol: as §2
# [30] = molecular target: Swine IgG; experiment: SPR, VHH immobilised, IgG 50 µg/ml
# Protocol: as §2
# [31] = molecular target: T13, Cat IgG; experiment: SPR, VHH immobilised, IgG 50 µg/ml
# T13 construct: also called IgG-Fc from cat
# Protocol: as §2
# [32] = molecular target: Donkey IgG; experiment: SPR, VHH immobilised, IgG 50 µg/ml
# Protocol: as §2
# [33] = molecular target: T14, Guinea pig IgG; experiment: SPR, VHH immobilised, IgG 50 µg/ml
# T14 construct: also called Guinea IgG; IgG-Fc from guinea pig
# Protocol: as §2
# [34] = molecular target: Foetal Calf IgG; experiment: SPR, VHH immobilised, IgG 50 µg/ml
# Protocol: as §2
# [35] = molecular target: Newborn Calf IgG; experiment: SPR, VHH immobilised, IgG 50 µg/ml
# Protocol: as §2
# [36] = molecular target: Horse IgG; experiment: SPR, VHH immobilised, IgG 50 µg/ml
# Protocol: as §2
# [37] = molecular target: T8, Bovine IgG; experiment: SPR, VHH immobilised, 1:1 Langmuir fit
# Protocol: as §1
# [38] = molecular target: T9, Mouse IgG; experiment: SPR, VHH immobilised, 1:1 Langmuir fit
# Protocol: as §1
# [39] = molecular target: T1, Human IgG; experiment: method not given
# Protocol: as §1
binder,measurement,setting,value
B1,Ka,[1],4.67e+08 M⁻¹
same,Kd,[1],2.14 nM
same,koff,[1],0.000176 s⁻¹
same,kon,[1],82400 M⁻¹ s⁻¹
same,Ka,[2],1.74e+09 M⁻¹
same,Kd,[2],0.575 nM
same,koff,[2],0.000208 s⁻¹
same,kon,[2],361000 M⁻¹ s⁻¹
same,Ka,[3],5.76e+08 M⁻¹
same,Kd,[3],1.73 nM
same,koff,[3],0.000212 s⁻¹
same,kon,[3],122000 M⁻¹ s⁻¹
same,Ka,[4],2.09e+07 M⁻¹
same,Kd,[4],47.8 nM
same,koff,[4],0.000272 s⁻¹
same,kon,[4],5690 M⁻¹ s⁻¹
same,Ka,[5],3.32e+09 M⁻¹
same,Kd,[5],0.302 nM
same,koff,[5],5.91e-05 s⁻¹
same,kon,[5],196000 M⁻¹ s⁻¹
same,Dynamic binding capacity,[6],18.2 mg human IgG/ml matrix
B2,Binding signal (RU),[7],1110 RU
same,Binding signal (RU),[8],807 RU
same,Binding signal (RU),[9],-2.8 RU
same,Binding signal (RU),[10],1570 RU
same,Binding signal (RU),[11],795 RU
same,Binding signal (RU),[12],499 RU
same,Binding signal (RU),[13],710 RU
same,Binding signal (RU),[14],108 RU
same,Binding signal (RU),[15],431 RU
same,Binding signal (RU),[16],444 RU
same,Binding signal (RU),[17],512 RU
same,Binding signal (RU),[18],2130 RU
same,Binding signal (RU),[19],800 RU
same,Binding signal (RU),[20],846 RU
same,Binding signal (RU),[21],309 RU
same,Binding signal (RU),[22],172 RU
same,Binding signal (RU),[23],-1.7 RU
same,Binding signal (RU),[24],468 RU
same,Binding signal (RU),[25],1610 RU
same,Binding signal (RU),[26],427 RU
same,Binding signal (RU),[27],490 RU
same,Binding signal (RU),[28],257 RU
same,Binding signal (RU),[29],670 RU
same,Binding signal (RU),[30],811 RU
same,Binding signal (RU),[31],410 RU
same,Binding signal (RU),[32],638 RU
same,Binding signal (RU),[33],577 RU
same,Binding signal (RU),[34],260 RU
same,Binding signal (RU),[35],239 RU
same,Binding signal (RU),[36],430 RU
same,Ka,[1],7.65e+07 M⁻¹
same,Kd,[1],13.1 nM
same,koff,[1],0.000462 s⁻¹
same,kon,[1],35300 M⁻¹ s⁻¹
same,Ka,[2],1.47e+08 M⁻¹
same,Kd,[2],6.81 nM
same,koff,[2],0.000211 s⁻¹
same,kon,[2],31000 M⁻¹ s⁻¹
same,Ka,[3],6.17e+07 M⁻¹
same,Kd,[3],16.2 nM
same,koff,[3],0.000355 s⁻¹
same,kon,[3],21900 M⁻¹ s⁻¹
same,Ka,[4],4.69e+07 M⁻¹
same,Kd,[4],21.3 nM
same,koff,[4],0.000849 s⁻¹
same,kon,[4],39800 M⁻¹ s⁻¹
same,Ka,[5],5.89e+08 M⁻¹
same,Kd,[5],1.7 nM
same,koff,[5],0.000107 s⁻¹
same,kon,[5],62900 M⁻¹ s⁻¹
same,Ka,[37],3.59e+08 M⁻¹
same,Kd,[37],2.79 nM
same,koff,[37],0.000386 s⁻¹
same,kon,[37],138000 M⁻¹ s⁻¹
same,Ka,[38],1.19e+08 M⁻¹
same,Kd,[38],8.41 nM
same,koff,[38],0.000198 s⁻¹
same,kon,[38],23500 M⁻¹ s⁻¹
same,Dynamic binding capacity,[6],11.5 mg human IgG/ml matrix
B3,Ka,[39],≥ 4e+09 M⁻¹
same,Ka,[1],3.07e+08 M⁻¹
same,Kd,[1],3.25 nM
same,koff,[1],0.00129 s⁻¹
same,kon,[1],396000 M⁻¹ s⁻¹
same,Ka,[2],3.81e+08 M⁻¹
same,Kd,[2],2.62 nM
same,koff,[2],0.000654 s⁻¹
same,kon,[2],249000 M⁻¹ s⁻¹
same,Ka,[3],1.37e+08 M⁻¹
same,Kd,[3],7.29 nM
same,koff,[3],0.000889 s⁻¹
same,kon,[3],122000 M⁻¹ s⁻¹
same,Ka,[4],1.11e+08 M⁻¹
same,Kd,[4],8.99 nM
same,koff,[4],0.0014 s⁻¹
same,kon,[4],156000 M⁻¹ s⁻¹
same,Ka,[5],8.16e+07 M⁻¹
same,Kd,[5],12.3 nM
same,koff,[5],0.00123 s⁻¹
same,kon,[5],100000 M⁻¹ s⁻¹
same,Dynamic binding capacity,[6],16.7 mg human IgG/ml matrix
